This note sets out measurements from patent publication US20160200813A1.

A word on the EC50: it is the concentration needed to bring the measured effect to its halfway point. A low value points to greater potency.

In assay [1] the target is Mouse LRP-8 expressed on HEK293 cells (mouse) (UniProt Q924X6). Put plainly: cell-based binding assay, mLRP8.
For assay [2] the target is unchanged. Put plainly: cell-based MSD-ECL binding on cells overexpressing mouse LRP-8 variant 1 (mLRP8 assay); curve without plateau up to 10000 ng/ml.
Assay [3] shares this target. Description: fit of the FACS titration of FIG. 12A on mLRP8-transfected HEK293 cells; the column head prints EC50 only, nM is from legend paragraph 78 and the axis of FIG. 12A.
Assay [4] has the same target. Description: cell-based MSD, 1 to 5, mouse-LRP8-HEK293.
For assay [5] the target is unchanged. Description: cell-based MSD, 1 to 25, mouse-LRP8-HEK293.
For assay [6] the target is unchanged. Put plainly: cell-based MSD, 1 to 125, mouse-LRP8-HEK293.
Assay [7] shares this target. Put plainly: cell-based binding on MOUSE LRP8-HEK293, supernatant 1:5.
For assay [8] the target is unchanged. Put plainly: cell-based binding on MOUSE LRP8-HEK293, supernatant 1:25.
For assay [9] the target is unchanged. Description: cell-based binding on MOUSE LRP8-HEK293, supernatant 1:125.
The target is the same in assay [10]. Put plainly: mLRP8 cell binding.
Assay [11] shares this target. Description: cell-based MSD binding assay on 293H-mLRP8 cells; curve label LRP8-11H1.
Assay [12] has the same target. Put plainly: FACS, mouse LRP8 cells. For orientation: A flow cytometer gives signals particle by particle.
Assay [13] shares this target. Description: mLRP8 cell binding; chimeric VL / chimeric VH.
Assay [14] shares this target. Put plainly: cell-based MSD binding assay on 293H-mLRP8 cells; curve label 11H1-20.
Assay [15] has the same target. Description: cell-based MSD binding assay on 293H-mLRP8 cells; curve label 11H1-17.
The target is the same in assay [16]. Put plainly: cell-based MSD binding assay on 293H-mLRP8 cells; curve label 11H1-21, no plateau up to about 600 nM.
Assay [17] shares this target. Description: cell-based MSD binding assay on 293H-mLRP8 cells; curve label 11H1-19.
Assay [18] has the same target. Description: cell-based MSD binding assay on 293H-mLRP8 cells; curve label 11H1-18.
The target is the same in assay [19]. Put plainly: cell-based MSD binding assay on 293H-mLRP8 cells; curve label 11H1-15.
The target is the same in assay [20]. Put plainly: cell-based MSD binding assay on 293H-mLRP8 cells; curve label 11H1-16, no plateau up to about 600 nM.

B1: anti-LRP-8 BGK-2C8.8C antibody (antibody, V domains shown)
VH: EVQLVESGGGLVQPGRSLKLSCAASGFTVSDYYMAWVRQAPKKGLEWVASISYEGSSTYYGDSVKGRFTISRDNAKSILYLQMNSLRSEDTATYYCARPLRYYGYNYRFAYWGQGTLVTVSS
VL: DIQMSQSPPVLSASVGDRVTLSCKASQNIHKNLDWYQQKHGEAPKLLIYYTDNLQTGIPSRFSGSGSGTDYTLTISSLQPEDVATYYCYQYNSGPTFGAGTKLELQ
Take B1: the results for the EC50 in assay [1], in [2] and in [3] were 22 nM, 4.4 µg/mL and 2.61 nM, respectively.

B2: BGK-7F7 (GENOVAC candidate clone of Table 17) (antibody, V domains shown)
VH: QVTLKESGPGILQPSQTLSLTCTFSGFSLSTYGLGVGWIRQPSGKGLEWLANIWWDDAKYYNPSLKNRLTISKDTSNNQAFLKIPNVDTADTARYYCARTTKPYYFDYWGQGVMVTVSS
VL: HFVLAQPNSVSTNLGSTVKLSCKRSTANIGSNYVNWYQQHEGRSPTTLIYRDDRRPDGVPDRFSGSIDRSSNSALLTINNVQTEDEADYFCQSYSSGINIFGGGTKLTVL
For B2, the fold over IgG control in assay [4] is 3.5 fold; in [5], 6 fold; in [6], 5.3 fold. In addition, the fold over isotype control in assay [7] was 27.4 fold; in assay [8], 21.6 fold; in [9], 13.1 fold.

B3: humanized ML199-11H1.5B2VH.1/VL.1a (antibody, V domains shown)
VH: EVQLVESGGGLVKPGGSLRLSCAASRFTFSNYGMSWVRQAPGKGLEWVSTISSGGRYTYYPDSVKGRFTISRDNAKNSLYLQMNSLRAEDTAVYYCARDYLYAMDYWGQGTTVTVSS
VL: DVVMTQSPLSLPVTPGEPASISCRSSQSLVYSNGNTYLHWYLQKPGQSPQVLMYKVSNRFSGVPDRFSGSGSGTDFTLKISRVEAEDVGVYFCSQSTHVPLTFGQGTKLEIK
B3: the EC50 in assay [10] worked out at 13.4 nM; in assay [11], 0.3 nM.

B4: chimeric anti-LRP-8 ML199.11H1.5B2 antibody [mu/hu IgG1/k] LALA (antibody, V domains shown)
VH: EVQLVESGGDLVKPGGSLKLSCAASRFTFSNYGMSWVRQTPDKRLEWVATISSGGRYTYYPDSVKGRFTISRDNAKNTLYLQMSSLRSEDTAMYYCARDYLYAMDYWGQGTSVTVSS
VL: DVVMTQTPLSLPVSLGDQASISCRSSQSLVYSNGNTYLHWYLQKPGQSPKVLMYKVSNRFSGVSDRFSGSGSGTDFTLKISRVEAEDLGVYFCSQSTHVPLTFGAGTKLELK
As to B4, the FACS (ratio +/-) in assay [12] was determined as 283. The EC50 stood at 0.32 nM in assay [1] and 0.95 nM in assay [13].

B5: LRP8-ML199.11H1.5B2 VH1/VL1A.20 (antibody, V domains shown)
VH: EVQLVESGGGLVKPGGSLRLSCAASRFTFSNYGMSWVRQAPGKGLEWVSTISSGGRYTYYPDHVKGRFTISRDNAKNSLYLQMNSLRAEDTAVYYCARDYLYAMDYWGQGTTVTVSS
VL: DVVMTQSPLSLPVTPGEPASISCRSSQSLVYSWGNTYLHWYLQKPGQSPQVLMYKVSNRFSGVPDRFSGSGSGTDFTLKISRVEAEDVGVYFCSQSTHVPLTFGQGTKLEIK
In the case of B5, in [14], the EC50 stood at 21 nM.

B6: LRP8-ML199.11H1.5B2 VH1/VL1A.17 (antibody, V domains shown)
VH: EVQLVESGGGLVKPGGSLRLSCAASRFTFSNYGMSWVRQAPGKGLEWVSTISSGGRYTYYPDHVKGRFTISRDNAKNSLYLQMNSLRAEDTAVYYCARDYLYAMDYWGQGTTVTVSS
VL: DVVMTQSPLSLPVTPGEPASISCRSSQSLVYSNLNTYLHWYLQKPGQSPQVLMYKVSNRFSGVPDRFSGSGSGTDFTLKISRVEAEDVGVYFCSQSTHVPLTFGQGTKLEIK
Regarding B6, in assay [15], the EC50 was 0.7 nM.

B7: LRP8-ML199.11H1.5B2 VH1/VL1A.21 (antibody, V domains shown)
VH: EVQLVESGGGLVKPGGSLRLSCAASRFTFSNYGMSWVRQAPGKGLEWVSTISSGGRYTYYPDHVKGRFTISRDNAKNSLYLQMNSLRAEDTAVYYCARDYLYAMDYWGQGTTVTVSS
VL: DVVMTQSPLSLPVTPGEPASISCRSSQSLVYSPGNTYLHWYLQKPGQSPQVLMYKVSNRFSGVPDRFSGSGSGTDFTLKISRVEAEDVGVYFCSQSTHVPLTFGQGTKLEIK
In the case of B7, the EC50 in [16] amounted to 249 nM.

B8: LRP8-ML199.11H1.5B2 VH1/VL1A.19 (antibody, V domains shown)
VH: EVQLVESGGGLVKPGGSLRLSCAASRFTFSNYGMSWVRQAPGKGLEWVSTISSGGRYTYYPDHVKGRFTISRDNAKNSLYLQMNSLRAEDTAVYYCARDYLYAMDYWGQGTTVTVSS
VL: DVVMTQSPLSLPVTPGEPASISCRSSQSLVYSRGNTYLHWYLQKPGQSPQVLMYKVSNRFSGVPDRFSGSGSGTDFTLKISRVEAEDVGVYFCSQSTHVPLTFGQGTKLEIK
B8: the half-maximal effective concentration (EC50) in [17] was determined as 24 nM.

B9: LRP8-ML199.11H1.5B2 VH1/VL1A.18 (antibody, V domains shown)
VH: EVQLVESGGGLVKPGGSLRLSCAASRFTFSNYGMSWVRQAPGKGLEWVSTISSGGRYTYYPDHVKGRFTISRDNAKNSLYLQMNSLRAEDTAVYYCARDYLYAMDYWGQGTTVTVSS
VL: DVVMTQSPLSLPVTPGEPASISCRSSQSLVYSNKNTYLHWYLQKPGQSPQVLMYKVSNRFSGVPDRFSGSGSGTDFTLKISRVEAEDVGVYFCSQSTHVPLTFGQGTKLEIK
B9: the concentration for a half-maximal effect (EC50) in assay [18] worked out at 0.8 nM.

B10: LRP8-ML199.11H1.5B2 VH1/VL1A.15 (antibody, V domains shown)
VH: EVQLVESGGGLVKPGGSLRLSCAASRFTFSNYGMSWVRQAPGKGLEWVSTISSGGRYTYYPDHVKGRFTISRDNAKNSLYLQMNSLRAEDTAVYYCARDYLYAMDYWGQGTTVTVSS
VL: DVVMTQSPLSLPVTPGEPASISCRSSQSLVYSNENTYLHWYLQKPGQSPQVLMYKVSNRFSGVPDRFSGSGSGTDFTLKISRVEAEDVGVYFCSQSTHVPLTFGQGTKLEIK
In [19], B10 registered an EC50 of 3.2 nM.

B11: LRP8-ML199.11H1.5B2 VH1/VL1A.16 (antibody, V domains shown)
VH: EVQLVESGGGLVKPGGSLRLSCAASRFTFSNYGMSWVRQAPGKGLEWVSTISSGGRYTYYPDHVKGRFTISRDNAKNSLYLQMNSLRAEDTAVYYCARDYLYAMDYWGQGTTVTVSS
VL: DVVMTQSPLSLPVTPGEPASISCRSSQSLVYSTGNTYLHWYLQKPGQSPQVLMYKVSNRFSGVPDRFSGSGSGTDFTLKISRVEAEDVGVYFCSQSTHVPLTFGQGTKLEIK
Turning to B11, in [20], the EC50 worked out at 625 nM.
